Data on 18 molecules can be found in patent publication US20210403579A1 (DELINIA, published 2021).

For this experiment, the target named is T1, Human ST2 (human, UniProt Q01638 19-328, limits assumed).
T1 construct: also called human ST2 protein; Interleukin 1 receptor-like 1
T1 sequence (looked up): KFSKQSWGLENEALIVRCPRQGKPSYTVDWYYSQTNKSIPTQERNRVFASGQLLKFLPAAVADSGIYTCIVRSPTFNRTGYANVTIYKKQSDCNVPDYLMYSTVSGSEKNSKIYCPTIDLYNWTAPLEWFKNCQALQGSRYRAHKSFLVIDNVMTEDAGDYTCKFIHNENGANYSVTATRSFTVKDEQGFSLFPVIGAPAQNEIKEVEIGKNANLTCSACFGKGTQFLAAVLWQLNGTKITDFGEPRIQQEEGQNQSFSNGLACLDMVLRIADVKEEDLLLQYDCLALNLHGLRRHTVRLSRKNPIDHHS
The experiment in a line: SPR (Carterra), antibody immobilized, ST2 analyte. Here is the method: Binding of the reformatted human ST2 antibodies to the human and mouse ST2 proteins was evaluated by surface plasmon resonance (SPR), using a high throughput antibody screening and characterization platform from Carterra (Salt Lake City, Utah).

B1: Human ST2 IgG1 Antibody 5 (antibody, V domains shown)
VH: EVQLLESGGGLVQPGGSLRLSCAASGFTFSSYWMSWVRQAPGKGLEWVSSISSDTTYKYYADSVKGRFTISRDNSKNTLYLQMNSLRAEDTAVYYCAREVDTAMKNWGQGTLVTVSS
VL: DIQMTQSPSSLSASVGDRVTITCRASQGIGNDLAWYQQKPGKAPKLLIYAASSLQSGVPSRFSGSGSGTDFTLTISSLQPEDFATYYCQQSYSTPYTFGQGTKVEIKR
notes: IgG1; also called ST2 Antibody 5
As a reminder, the Kd is the equilibrium constant for the complex coming apart. What is called koff is the rate constant with which the complex falls apart. As usually defined, the kon is the second-order rate constant of association. Lower therefore signals slower complex formation. With B1, the Kd turned out to be 190 nM, the koff worked out at 0.048 s⁻¹ and the kon was 250000 M⁻¹ s⁻¹.

B2: Human ST2 IgG1 Antibody 9 (antibody, V domains shown)
VH: EVQLLESGGGLVQPGGSLRLSCAASGFAFSSHWMHWVRQAPGKGLEWVATISSGSHSIHYADSVKGRFTISRDNSKNTLYLQMNSLRAEDTAVYYCAREAGTSYYYYGMDVWGKGTTVTVSS
VL: DIQMTQSPSSLSASVGDRVTITCQASQDIRNYLNWYQQKPGKAPKLLIYKASSLESGVPSRFSGSGSGTDFTLTISSLQPEDFATYYCQQSYSTPPTFGGGTKVEIKR
notes: IgG1; also called ST2 Antibody 9
In turn, B2 showed a Kd of 293 nM, a koff of 0.036 s⁻¹ and a kon of 120000 M⁻¹ s⁻¹.

B3: Human ST2 IgG1 Antibody 12 (antibody, V domains shown)
VH: QVQLVQSGAEVKKPGASVKVSCKASGYTFTGYYMHWVRQAPGQGLEWMGIIDPSGGGTSYAQKFQGRVTMTRDTSTSTVYMELSSLRSEDTAVYYCAKDIVVVPAAIANYYYGMDVWGQGTTVTVSS
VL: DIQMTQSPSSLSASVGDRVTITCRVSQGISNYLNWYQQKPGKAPKLLIYGASTLQSGVPSRFSGSGSGTDFTLTISSLQPEDFATYYCQQSYSTPWTFGPGTKVDIKR
notes: IgG1; also called ST2 Antibody 12
B3: binding was put at a Kd of 217 nM, the koff stood at 0.024 s⁻¹ and the kon stood at 110000 M⁻¹ s⁻¹.

B4: Human ST2 IgG1 Antibody 17 (antibody, V domains shown)
VH: QVQLVQSGAEVKKPGASVKVSCKASGYTFTDSFMFWVRQAPGQGLEWVGLINPGTGATIFAQKFQGRVTMTRDTSTSTVYMELSSLRSEDTAVYYCARSSDYDSSDYWGQGTLVTVSS
VL: DIQMTQSPSSLSASVGDRVTITCRASQSISTWLAWYQQKPGKAPKLLIYGASSLQSGVPSRFSGSGSGTDFTLTISSLQPEDFATYYCQQSYNSPYTFGQGTKVEIKR
notes: IgG1; also called ST2 Antibody 17
B4 registered a Kd of 433 nM, a koff of 0.033 s⁻¹ and a kon of 76000 M⁻¹ s⁻¹.

B5: Human ST2 IgG1 Antibody 6 (antibody, V domains shown)
VH: EVQLLESGGGLVKPGGSLRLSCAASGFTFSSYWMSWVRQAPGKGLEWVSAIGGSGAGTYYADSVKGRFTISLDDSKNTLYLQMNSLKTEDTAVYYCARLSTVTRGFDYWGQGTLVTVSS
VL: DIQMTQSPSSLSASVGDRVTITCRASQSISNWLAWYQQKPGKAPKLLIYSASSLQNGVPSRFSGSGSGTDFTLTISSLQPEDFATYYCQQSYSTPPTFGQGTKVEIKR
notes: IgG1; also called ST2 Antibody 6
On to B5, for which the Kd was found to be 166 nM, the koff was determined as 0.057 s⁻¹ and the kon was determined as 340000 M⁻¹ s⁻¹.

B6: Human ST2 IgG1 Antibody 1 (antibody, V domains shown)
VH: QVQLVQSGAEVKKPGSSVKVSCKASGGTFSSYAISWVRQAPGQGLEWMGGIIPIFGTANYAQKFQGRVTITADESTSTAYMELSSLRSEDTAVYYCAKSILGGRIFGGYFDLWGRGTLVTVSS
VL: DIVMTQSPLSLPVTPGEPASISCRSSQSLLHSNGYNYLDWYLQKPGQSPQLLIYAASSLQSGVPDRFSGSGSGTDFTLKISRVEAEDVGVYYCMQALQTPPTFGQGTKVEIKR
notes: IgG1; also called ST2 Antibody 1
In turn, B6 returned a Kd of 617 nM, a koff of 0.072 s⁻¹ and a kon of 120000 M⁻¹ s⁻¹.

B7: Human ST2 IgG1 Antibody 14 (antibody, V domains shown)
VH: QVQLVQSGAEVKKPGSSVKVSCKASGYTFTSYGISWVRQAPGQGLEWMGGIIPIFGTANYAPRFQGRVTITADESTSTAYMELSSLRSEDTAVYYCARDTVSMDVWGQGTTVTVSS
VL: DIVMTQSPLSLPVTPGEPASISCRSSQSLLHSNGYNYLDWYLQKPGQSPQLLIYDASNLETGVPDRFSGSGSGTDFTLKISRVEAEDVGVYYCMQGAHWPPTFGQGTKLEIKR
notes: IgG1; also called ST2 Antibody 14
Molecule B7 yielded a Kd of 42 nM, a koff of 0.017 s⁻¹ and a kon of 400000 M⁻¹ s⁻¹.

B8: Human ST2 IgG1 Antibody 8 (antibody, V domains shown)
VH: QVQLVQSGAEVKKPGASVKVSCKASGGTFSSYAISWVRQAPGQGLEWMGWISPDNGNTNYAQKLQGRVTMTRDTSTSTVYMELSSLRSEDTAVYYCARLAYDTGYYYYYYMDVWGKGTTVTVSS
VL: DIVMTQSPLSLPVTPGEPASISCRSSQSLLHSNGYNYLDWYLQKPGQSPQLLIYAASTLQSGVPDRFSGSGSGTDFTLKISRVEAEDVGVYYCMQGTHWPLTFGQGTKVEIKR
notes: IgG1; also called ST2 Antibody 8
B8 yielded a Kd of 153 nM, a dissociation rate constant (koff) of 0.017 s⁻¹ and a kon of 110000 M⁻¹ s⁻¹.

B9: Human ST2 IgG1 Antibody 10 (antibody, V domains shown)
VH: QVQLVQSGAEVKKPGSSVKVSCKASGGTFGYYAISWVRQAPGQGLEWMGGIIPMVGTGQYAQEFQGRVTITADESTSTAYMELSSLRSEDTAVYYCAGVEVGATRGYFQHWGQGTLVTVSS
VL: DIVMTQSPLSLPVTPGEPASISCRSSQSLLHSNGYNYLDWYLQKPGQSPQLLIYAASTLQSGVPDRFSGSGSGTDFTLKISRVEAEDVGVYYCMQGTHWPTTFGQGTRLEIKR
notes: IgG1; also called ST2 Antibody 10
Molecule B9 had a Kd of 131 nM, a koff of 0.079 s⁻¹ and an on-rate constant (kon) of 600000 M⁻¹ s⁻¹.

B10: Human ST2 IgG1 Antibody 13 (antibody, V domains shown)
VH: QVQLVQSGAEVKKPGSSVKVSCKASGYTFTDYYMHWVRQAPGQGLEWMGGIMPLFGTIKYAQELQGRVTITADESTSTAYMELSSLRSEDTAVYYCARGRVGATDYWGQGTLVTVSS
VL: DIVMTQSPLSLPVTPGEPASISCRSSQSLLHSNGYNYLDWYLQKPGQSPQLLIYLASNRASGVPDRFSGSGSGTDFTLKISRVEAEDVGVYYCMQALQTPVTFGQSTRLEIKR
notes: IgG1; also called ST2 Antibody 13
B10 registered a Kd of 201 nM, a koff of 0.04 s⁻¹ and a kon of 200000 M⁻¹ s⁻¹.

B11: Human ST2 IgG1 Antibody 2 (antibody, V domains shown)
VH: QVQLVQSGAEVKKPGSSVKVSCKASGYTFSDYYVHWVRQAPGQGLEWMGGIIPIVGTANYAQKFQGRVTITADESTSTAYMELSSLRSEDTAVYYCARAGGGDYKSYYFDYWGRGTLVTVSS
VL: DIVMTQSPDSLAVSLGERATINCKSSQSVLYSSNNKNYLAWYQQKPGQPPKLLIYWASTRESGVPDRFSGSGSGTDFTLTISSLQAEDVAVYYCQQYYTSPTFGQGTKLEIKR
notes: IgG1; also called ST2 Antibody 2
In turn, B11 showed a Kd of 229 nM, a koff of 0.11 s⁻¹ and a kon of 500000 M⁻¹ s⁻¹.

B12: Human ST2 IgG1 Antibody 3 (antibody, V domains shown)
VH: QVQLVQSGAEVKKPGSSVKVSCKASGGTFSSYAFSWVRQAPGQGLEWMGGIIPIFGTPNYAQKFQGRVTITADESTSTAYMELSSLRSEDTAVYYCARVRAKRPNWYFDLWGRGTLVTVSS
VL: not shown
notes: IgG1; also called ST2 Antibody 3
The molecule B12 showed a Kd of 146 nM, a koff of 0.042 s⁻¹ and a kon of 290000 M⁻¹ s⁻¹.

B13: Human ST2 IgG1 Antibody 15 (antibody, V domains shown)
VH: QVQLVQSGAEVKKPGSSVKVSCKASGGTFSSYAISWVRQAPGQGLEWMGGIIPMFGTTNYAQKFQGRVTITADESTSTAYMELSSLRSEDTAVYYCATVAAAGPNWYFDLWGRGTLVTVSS
VL: DIQMTQSPSSLSASVGDRVTITCQASQGISNYLNWYQQKPGKAPKLLIYAASTLQSGVPSRFSGSGSGTDFTLTISSLQPEDFATYYCQQSYSTPPTFGQGTKVEIKR
notes: IgG1; also called ST2 Antibody 15
With B13, the Kd turned out to be 769 nM, the koff was found to be 0.14 s⁻¹ and the association rate constant (kon) was determined as 190000 M⁻¹ s⁻¹.

B14: Human ST2 IgG1 Antibody 4 (antibody, V domains shown)
VH: QVQLVQSGAEVKKPGSSVKVSCKASGGTFSTFGVSWVRQAPGQGLEWMGRIIPILATTNYAQKFQGRVTITADESTSTAYMELSSLRSEDTAVYYCASGDYYDSSGYYGYFQHWGQGTLVTVSS
VL: EIVMTQSPATLSVSPGERATLSCRASQSVSSSYLAWYQQKPGQAPRLLIYGASTRATGIPARFSGSGSGTEFTLTISSLQSEDFAVYYCQQSYSIPFTFGQGTKLEIKR
notes: IgG1; also called ST2 Antibody 4
On to B14, for which the affinity, expressed as Kd, was 12 nM; the koff is 0.0025 s⁻¹; the kon was 210000 M⁻¹ s⁻¹.

B15: Human ST2 IgG1 Antibody 11 (antibody, V domains shown)
VH: QVQLVQSGAEVKKPGASVKVSCKASGGTFSSYAISWVRQAPGQGLEWMGWINPNSGGTNYAQKFQGRVTMTRDTSTSTVYMELSSLRSEDTAVYYCAMDTNYYYGMDVWGQGTTVTVSS
VL: DIQMTQSPSSLSASVGDRVTITCQASEDIANNLNWYQQKPGKAPKLLIYAASSLQSGVPSRFSGSGSGTDFTLTISSLQPEDFATYYCQQGYNIPFTFGQGTKLEIKR
notes: IgG1; also called ST2 Antibody 11
Take B15: binding was characterised by a dissociation constant (Kd) of 25 nM, the koff turned out to be 0.019 s⁻¹ and the kon was 780000 M⁻¹ s⁻¹.

B16: Human ST2 IgG1 Antibody 16 (antibody, V domains shown)
VH: QVQLVQSGAEVKKPGASVKVSCKASGYTFTSHYMHWVRQAPGQGLEWMGIINPSGGSTSYAQKFQGRVTMTRDTSTSTVYMELSSLRSEDTAVYYCARAGIGYLAAHDLYYYYGMDVWGRGTLVTVSS
VL: EIVMTQSPATLSVSPGERATLSCRASQSVSSNFAWYQQKPGQAPRLLIYGASTRATGIPARFSGSGSGTEFTLTISSLQSEDFAVYYCQQYYSTPYTFGQGTKVEIKR
notes: IgG1; also called ST2 Antibody 16
In the case of B16, the affinity, expressed as Kd, was 96 nM; the koff turned out to be 0.056 s⁻¹; the kon was determined as 580000 M⁻¹ s⁻¹.

B17: Human ST2 IgG1 Antibody 7 (antibody, V domains shown)
VH: QVQLVQSGAEVKKPGASVKVSCKASGYTFTDSYIHWVRQAPGQGLEWMGWMNPNSGNTGYAQKFQGRVTMTRDTSTSTVYMELSSLRSEDTAVYYCARGVFDYGDYGYYYHYMDVWGKGTTVTVSS
VL: DIVMTQSPLSLPVTPGEPASISCRSSQSLLHSNGYNYLDWYLQKPGQSPQLLIYGASTLQPGVPDRFSGSGSGTDFTLKISRVEAEDVGVYYCMQGTQWPTFGQGTKLEIKR
notes: IgG1; also called ST2 Antibody 7
As to B17, the dissociation constant Kd amounted to 15 nM, the koff was 0.0044 s⁻¹ and the kon amounted to 290000 M⁻¹ s⁻¹.

B18: Human ST2 IgG1 Antibody 18 (antibody, V domains shown)
VH: QVQLVQSGAEVKKPGSQVKVSCKASGYTFTSFGISWVRQAPGQGLEWLGGIIPTLGTANYAQKFQGRVTITADDSTSTAYMELSSLRSEDTAVYYCAGGAAAGPDKYYGMDVWGQGTTVTVSS
VL: not shown
notes: IgG1; also called ST2 Antibody 18
With B18, the Kd worked out at 1100 nM, the koff worked out at 0.11 s⁻¹ and the kon was determined as 95000 M⁻¹ s⁻¹.
